Reference: patent publication US20050054014A1
Starred links: 1 amine or outer side, 2 acyl side, 3 side chain; linkers in the order of their positions; H or OH if unused. Non-standard residues stand in square brackets, D forms with d. No end group written: not given here. βAsp = O=C(O)[C@H](CC(=O)[*:2])N[*:1]

B1: AG1-1 peptide … heated at 90° C. for 4 hours (peptide)
peptide: GRVRVNSAY
modifications: also: heated mixture: Asn6 partly converted to βL, αD and βD forms
B2: AG1-1 peptide, isomerized (βL) form (peptide)
peptide: GRVRV[βAsp]SAY

Legend:
[1] = target: polyclonal AG1-1 specific rabbit antiserum; experiment: competitive ELISA, BSA-BS^3-AG1-1 coated plates, free peptide as competitor
[2] = target: AG1-1 specific monoclonal antibody F49; experiment: competitive ELISA, biotin-GRVRVD-β-SAY on streptavidin plates, free peptide as competitor

Binder | fold higher reactivity compared with the non-boiled form [1] [fold] | fold higher reactivity compared with the αL form [2] [fold]
B1 | 7 | –
B2 | – | > 500
